The source of these data is PMC9157467, “A cryptic phosphate-binding pocket on the SPFH domain of human stomatin that regulates a novel fibril-like self-assembly” (Current Research in Structural Biology, 2022).

This data set deals with the molecule itself. Kind of data set: light scattering at 320 nm; lyophilized protein suspended to 400 uM in 50 mM sodium phosphate pH 6.0, 100 mM NaCl or 50 mM bis-Tris/HCl pH 6.0, 100 mM NaCl (mutants also at high phosphate); dissolution followed over time.

B1: hSTOM(SPFH)-[R125A] (domain or fragment, human, UniProt P27105 94-202, looked up)
chain: VDMRTISFDIPPQEILTKDSVTISVDGVVYYAVQNATLAVANITNADSATRLLAQTTLRNVLGTKNLSQILSDREEIAHNMQSTLDDATDAWGIKVERVEIKDVKLPVQ
notes: human stomatin (STOM), SPFH domain, residues 94-202, with R125A; Same construct as m1 with one alanine substitution (QuikChange); source: E. coli BL21 (DE3), purified (DEAE Sepharose, Glutathione Sepharose 4 Fast Flow, thrombin cleavage, Superdex 75)
In the case of B1, the binding result is listed as “binds”.

B2: hSTOM(SPFH)-[K188A] (domain or fragment, human, UniProt P27105 94-202, looked up)
chain: VDMRTISFDIPPQEILTKDSVTISVDGVVYYRVQNATLAVANITNADSATRLLAQTTLRNVLGTKNLSQILSDREEIAHNMQSTLDDATDAWGIAVERVEIKDVKLPVQ
notes: human stomatin (STOM), SPFH domain, residues 94-202, with K188A; Same construct as m1 with one alanine substitution (QuikChange); source: E. coli BL21 (DE3), purified (DEAE Sepharose, Glutathione Sepharose 4 Fast Flow, thrombin cleavage, Superdex 75)
On to B2, for which the binding result was “binds”.
